Laboratory results from patent US20200199204A1 (UNITED STATES OF AMERICA AS REPRESENTED BY THE SECRETARY …, published 2020).

Columns and labels:
Test in all cases: cell-based or functional assay
[1] = biological target: HIV-1 Env of 6535.3 (HIV-1)
[2] = biological target: HIV-1 Env of REJO.67 (HIV-1)
[3] = biological target: HIV-1 Env of DU422.01 (HIV-1)
[4] = biological target: HIV-1 Env of MB539.2B7 (HIV-1)
[5] = biological target: Env of SIVmac251.30 (SIV (printed as nonHIV))
[6] = biological target: HIV-1 Env of CAP210.E8 (HIV-1)
[7] = biological target: HIV-1 Env of DU156.12 (HIV-1)
[8] = biological target: HIV-1 Env of QH0692.42 (HIV-1)
[9] = biological target: HIV-1 Env of TRJO.58 (HIV-1)
[10] = biological target: HIV-1 Env of RHPA.7 (HIV-1)
[11] = biological target: HIV-1 Env of C1080.c3 (HIV-1)
[12] = biological target: HIV-1 Env of 3016.V5.c36 (HIV-1)
[13] = biological target: HIV-1 Env of ZM233.6 (HIV-1)
[14] = biological target: HIV-1 Env of ZM249.1 (HIV-1)
[15] = biological target: HIV-1 Env of AC10.29 (HIV-1)
[16] = biological target: HIV-1 Env of UG037.8 (HIV-1)
[17] = biological target: HIV-1 Env of ZM109.4 (HIV-1)
[18] = biological target: HIV-1 Env of CAAN.A2 (HIV-1)
[19] = biological target: HIV-1 Env of 191821.E6.1 (HIV-1)
[20] = biological target: HIV-1 Env of SC422.8 (HIV-1)
[21] = biological target: HIV-1 Env of Q769.d22 (HIV-1)
[22] = biological target: HIV-1 Env of Q168.a2 (HIV-1)
[23] = biological target: HIV-1 Env of TRO.11 (HIV-1)
[24] = biological target: HIV-1 Env of 0260.v5.c36 (HIV-1)
[25] = biological target: HIV-1 Env of CAP256.PI (HIV-1)
[26] = biological target: HIV-1 Env of THRO.18 (HIV-1)
[27] = biological target: HIV-1 Env of CM244.ec1 (HIV-1)
[28] = biological target: HIV-1 Env of MB201 (HIV-1)
[29] = biological target: HIV-1 Env of TH976.17 (HIV-1)
[30] = biological target: HIV-1 Env of RW020.2 (HIV-1)
[31] = biological target: HIV-1 Env of Q461.e2 (HIV-1)
[32] = biological target: HIV-1 Env of 6405.v4.c34 (HIV-1)
[33] = biological target: HIV-1 Env of CNE3 (HIV-1)
[34] = biological target: HIV-1 Env of CAP244.D3 (HIV-1)
[35] = biological target: HIV-1 Env of ZM214.15 (HIV-1)
[36] = biological target: HIV-1 Env of BG505.w6m (HIV-1)
[37] = biological target: HIV-1 Env of DU172.17 (HIV-1)
[38] = biological target: HIV-1 Env of ZM53.12 (HIV-1)
[39] = biological target: HIV-1 Env of KER2008.12 (HIV-1)
[40] = biological target: HIV-1 Env of 96ZM651.02 (HIV-1)
[41] = biological target: HIV-1 Env of ZM197.7 (HIV-1)
[42] = biological target: HIV-1 Env of Q842.d12 (HIV-1)
[43] = biological target: HIV-1 Env of CAP256.SU (HIV-1)
[44] = biological target: HIV-1 Env of Q259.d2.17 (HIV-1)
[45] = biological target: HIV-1 Env of KER2018.11 (HIV-1)
[46] = biological target: HIV-1 Env of ZM135.10a (HIV-1)
[47] = biological target: HIV-1 Env of PVO.04 (HIV-1)
[48] = biological target: HIV-1 Env of WITO.33 (HIV-1)
[49] = biological target: HIV-1 Env of CAP45.G3 (HIV-1)
[50] = biological target: HIV-1 Env of Q23.17 (HIV-1)

Measured: neutralization IC50

B1: CAP256-VRC26.06 (antibody, V domains shown)
VH: EVQLIESGGGVVQPGRSLRLSCGASGFSFNNYGMHWVRQAPGKGLEWVAGISFAGIKKYYGTSVKGRFTISRDNSKNNFYLQMNSLRVEDTALYYCARDLRELECEEWTLYNYYDFGSRGPCVDPRGVAGSFDVWGQGTMVTVSS
VL: QSVLTQPPSVSAAPGQKVTISCSGSTSKIGQNSVSWYQQLPGTAPKLLIYENDRRPSGTPDRFSGSKSGTSATLAITGLQTGDEAEYYCETWDGSGGVFGTGTKVTVLG
0.178 µg/mL: [20]
0.222 µg/mL: [38]
0.003 µg/mL: [48]
0.729 µg/mL: [6]
0.055 µg/mL: [43]
0.022 µg/mL: [15]
4.25 µg/mL: [26]
0.308 µg/mL: [47]
0.03 µg/mL: [25]
> 50 µg/mL: all other assays above

B2: CAP256-VRC26.01 (antibody, V domains shown)
VH: EVQVVESGGGVVQPGRSLRLSCTASGFTFSNFAMGWVRQAPGKGLEWVAFISSDGSNKNYGDSVKGRFTISRDNSKNTVFLQMNSLRVEDTALYYCAKDVGDYKSDEWGTEYYDISISYPIQDPRAMVGAFDLWGQGTMVTVSP
VL: QSVLTQPPSVSAAPGQKVTISCSGSSSTIGNNYVSWYRLLPGTAPKLLIYKNDNRPSGIPDRFSGSKSGTSATLGISGLQTGDEADYYCGTWDTSLSGGGVFGTGTKVTVLG
3.32 µg/mL: [27]
9.63 µg/mL: [12]
8.1 µg/mL: [45]
0.103 µg/mL: [38]
30.9 µg/mL: [39]
0.14 µg/mL: [43]
0.217 µg/mL: [6]
10.4 µg/mL: [41]
> 50 µg/mL: all other assays above
